In data set [1] the test system is Saccharomyces cerevisiae. In words: protein stability index of tFT-peptide fusion in deletion strain of DAS1 (PSI (0-1 scale)); higher = more stable (slower turnover). Here is the method: (§1)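 MPS profiling in S. cerevisiae of two library types built from selected 12-aa C-degron peptides (IN1, IN2, LN1, LN3, VN2, R1-R5, W1-W3, Atg1 and Rpa12 C-termini): saturation mutagenesis libraries and C-terminal +1 capping libraries (13 aa). Each peptide is fused to the C-terminus of a sfGFP-mCherry timer, after a GGGS linker. Cells are FACS-sorted into 8 mCherry/sfGFP bins and sequenced. PSI runs from 0 (unstable) to 1 (stable), measured once in wild type and in the das1Δ or doa10Δ background.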

The test system of data set [2] is Saccharomyces cerevisiae. In words: protein stability index of tFT-peptide fusion in wild type (PSI (0-1 scale)); higher = more stable (slower turnover). Conditions: genetic background: wild type. Here is the method: as §1
For data set [3], the system named is Saccharomyces cerevisiae. In words: protein stability index of tFT-peptide fusion (C-terminal peptide) (PSI (0-1 scale)); higher = more stable (slower turnover). Conditions: temperature: 30 C. Here is the method:
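MPS profiling in S. cerevisiae of the yeast C-terminome library: the last 12 aa of each annotated ORF are fused to the C-terminus of a sfGFP-mCherry timer, after a GGGS linker. Cells are FACS-sorted into 8 mCherry/sfGFP bins and deep-sequenced. PSI runs from 0 (unstable) to 1 (stable); wild type and das1Δ backgrounds, two technical replicates each.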

Where [4] appears, read: genetic background: das1 deletion.

± gives the standard deviation of the averaged measurements.
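Wherever protein stability index of tFT-peptide fusion in deletion strain of DAS1 is given: PSI is a weighted mean of each variant's read distribution over the sorted stability bins, computed only for variants having over 10 reads in total.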
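Wherever protein stability index of tFT-peptide fusion in wild type is given: PSI derived as read-weighted mean over the 8 sorting bins, only variants exceeding 10 total reads kept, mCherry placed adjacent to the peptide and sfGFP distal.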

For ERWRVGLWRGAS, the protein stability index came out at 0.741 in the data set with Saccharomyces cerevisiae [1] and 0.378 in the data set on Saccharomyces cerevisiae [2].

With ETSCGYKFRTNN, the values for the protein stability index in the data set with Saccharomyces cerevisiae [1] and in the data set on Saccharomyces cerevisiae [2] were 0.672 and 0.266, respectively.

On to FDMRWTFRYWVN, for which the results for the protein stability index with Saccharomyces cerevisiae [1] and in the data set with Saccharomyces cerevisiae [2] were 0.557 and 0.089, respectively.

For the sequence VWSLYSRTALET [OAR1 C-terminal 12 aa], the protein stability index in the data set on Saccharomyces cerevisiae [3] (setting [4]) came to 0.6176 ± 0.004; in the data set on Saccharomyces cerevisiae [3] (genetic background: wild type) it was 0.608 ± 0.012.

In the case of VYSIESRVLGHN [OAC1 C-terminal 12 aa], the values for the protein stability index in the data set with Saccharomyces cerevisiae [3] (setting [4]) and with Saccharomyces cerevisiae [3] (genetic background: wild type) were 0.679 ± 0.015 and 0.676 ± 0.055, respectively.

On to WAIESVDENWRF [TOP1 C-terminal 12 aa], for which the protein stability index was 0.746 ± 0.032 in the data set on Saccharomyces cerevisiae [3] (setting [4]) and 0.773 ± 0.04 in the data set on Saccharomyces cerevisiae [3] (genetic background: wild type).

Take WARRSFSSYDLC [GID11 C-terminal 12 aa]: the protein stability index in the data set on Saccharomyces cerevisiae [3] (setting [4]) is 0.7053 ± 0.0036; with Saccharomyces cerevisiae [3] (genetic background: wild type) it was 0.694 ± 0.011.

Take WDLEQIMSQHGF [PCL1 C-terminal 12 aa]: the values for the protein stability index with Saccharomyces cerevisiae [3] (setting [4]) and in the data set on Saccharomyces cerevisiae [3] (genetic background: wild type) were 0.7397 ± 0.007 and 0.735 ± 0.0046, respectively.

WLTTKMSSSEAS [UIP4 C-terminal 12 aa]: the protein stability index in the data set with Saccharomyces cerevisiae [3] (setting [4]) was found to be 0.708 ± 0.014; in the data set with Saccharomyces cerevisiae [3] (genetic background: wild type), 0.741 ± 0.025.

Consider WNCFLSMRNASK [YOR292C C-terminal 12 aa], for which the protein stability index with Saccharomyces cerevisiae [3] (setting [4]) turned out to be 0.693 ± 0.012; in the data set with Saccharomyces cerevisiae [3] (genetic background: wild type), 0.72 ± 0.028.

“WRFLGIVKSPNT [YDR510C-A C-terminal 12 aa]”: the protein stability index in the data set with Saccharomyces cerevisiae [3] (setting [4]) is 0.6815 ± 0.0017; in the data set with Saccharomyces cerevisiae [3] (genetic background: wild type) it was 0.693 ± 0.013.

With WRQEYPGVDEFF [PRM8 C-terminal 12 aa], the results for the protein stability index with Saccharomyces cerevisiae [3] (setting [4]) and in the data set with Saccharomyces cerevisiae [3] (genetic background: wild type) were 0.742 ± 0.0099 and 0.748 ± 0.045, respectively.

YAGIPENKIIGV [ARG56 C-terminal 12 aa]: the protein stability index with Saccharomyces cerevisiae [3] (setting [4]) came to 0.703 ± 0.048; with Saccharomyces cerevisiae [3] (genetic background: wild type), 0.702 ± 0.021.

On to YCLAGVLCVFCV [YPR064W C-terminal 12 aa], for which the protein stability index in the data set on Saccharomyces cerevisiae [3] (setting [4]) amounted to 0.431 ± 0.013; in the data set with Saccharomyces cerevisiae [3] (genetic background: wild type), 0.433 ± 0.0085.

YDKESDDRKCCL [CTR3 C-terminal 12 aa]: the protein stability index in the data set with Saccharomyces cerevisiae [3] (setting [4]) stood at 0.681 ± 0.0083; in the data set on Saccharomyces cerevisiae [3] (genetic background: wild type), 0.675 ± 0.034.

In the case of YGISSSVLKGST [PHO87 C-terminal 12 aa], the figures for the protein stability index in the data set on Saccharomyces cerevisiae [3] (setting [4]) and in the data set with Saccharomyces cerevisiae [3] (genetic background: wild type) were 0.7153 ± 0.0032 and 0.676 ± 0.009, respectively.

As to YGLNIGRPDFYR [TAF10 C-terminal 12 aa], the protein stability index in the data set on Saccharomyces cerevisiae [3] (setting [4]) was 0.725 ± 0.016; with Saccharomyces cerevisiae [3] (genetic background: wild type), 0.7099 ± 0.0023.

YHAVDSTMSPKN [OST4 C-terminal 12 aa]: the protein stability index with Saccharomyces cerevisiae [3] (setting [4]) was 0.693 ± 0.019; in the data set with Saccharomyces cerevisiae [3] (genetic background: wild type) it was 0.719 ± 0.047.

Consider YHKLVDEVFQHL [MPA43 C-terminal 12 aa], for which the protein stability index in the data set with Saccharomyces cerevisiae [3] (setting [4]) amounted to 0.71092 ± 0.00027; with Saccharomyces cerevisiae [3] (genetic background: wild type), 0.688 ± 0.016.

As for YIDDIDQTIPKY [UBA4 C-terminal 12 aa], the protein stability index is 0.7441 ± 0.0062 in the data set with Saccharomyces cerevisiae [3] (setting [4]) and 0.686 ± 0.0073 with Saccharomyces cerevisiae [3] (genetic background: wild type).

In the case of YILFFLFQLSIM [PEX35 C-terminal 12 aa], the protein stability index in the data set with Saccharomyces cerevisiae [3] (setting [4]) stood at 0.342 ± 0.02; in the data set on Saccharomyces cerevisiae [3] (genetic background: wild type), 0.369 ± 0.015.

Consider YKDDEDDDIEMT [PDS5 C-terminal 12 aa], for which the results for the protein stability index in the data set with Saccharomyces cerevisiae [3] (setting [4]) and with Saccharomyces cerevisiae [3] (genetic background: wild type) were 0.679 ± 0.011 and 0.685 ± 0.051, respectively.

In the case of YLGAKTGSLIDF [KAR5 C-terminal 12 aa], the protein stability index was 0.702 ± 0.015 with Saccharomyces cerevisiae [3] (setting [4]) and 0.721 ± 0.026 in the data set on Saccharomyces cerevisiae [3] (genetic background: wild type).

Consider YLIAVTNLVERE [PPT2 C-terminal 12 aa], for which the protein stability index with Saccharomyces cerevisiae [3] (setting [4]) was 0.682 ± 0.045; with Saccharomyces cerevisiae [3] (genetic background: wild type), 0.723 ± 0.086.

For the sequence YLKLRGANFVLK [IES6 C-terminal 12 aa], the protein stability index with Saccharomyces cerevisiae [3] (setting [4]) is 0.695 ± 0.013; in the data set with Saccharomyces cerevisiae [3] (genetic background: wild type) it was 0.684 ± 0.011.

“YLKRCCYHPMQN [YIL020C-A C-terminal 12 aa]”: the protein stability index in the data set on Saccharomyces cerevisiae [3] (setting [4]) turned out to be 0.72572 ± 0.00065; in the data set with Saccharomyces cerevisiae [3] (genetic background: wild type), 0.679 ± 0.035.

For the sequence YLRRFFEVTSLV [EMP24 C-terminal 12 aa], the protein stability index in the data set on Saccharomyces cerevisiae [3] (setting [4]) was 0.552 ± 0.011; with Saccharomyces cerevisiae [3] (genetic background: wild type), 0.338 ± 0.03.

For YLYVFLQQARLE [YBR032W C-terminal 12 aa], the protein stability index in the data set on Saccharomyces cerevisiae [3] (setting [4]) was 0.51 ± 0.029; in the data set on Saccharomyces cerevisiae [3] (genetic background: wild type), 0.473 ± 0.018.

As for YMIRFIANGYYY [SWR1 C-terminal 12 aa], the figures for the protein stability index in the data set on Saccharomyces cerevisiae [3] (setting [4]) and in the data set with Saccharomyces cerevisiae [3] (genetic background: wild type) were 0.613 ± 0.014 and 0.614 ± 0.009, respectively.

As for YMKHLLECRSLW [PCD1 C-terminal 12 aa], the figures for the protein stability index in the data set on Saccharomyces cerevisiae [3] (setting [4]) and in the data set on Saccharomyces cerevisiae [3] (genetic background: wild type) were 0.733 ± 0.019 and 0.6945 ± 0.00077, respectively.

With YNINDLYKSLTR [MAK32 C-terminal 12 aa], the figures for the protein stability index in the data set with Saccharomyces cerevisiae [3] (setting [4]) and in the data set with Saccharomyces cerevisiae [3] (genetic background: wild type) were 0.7059 ± 0.0029 and 0.711 ± 0.023, respectively.

In the case of YPVGQVDRDVCC [TAD3 C-terminal 12 aa], the results for the protein stability index in the data set on Saccharomyces cerevisiae [3] (setting [4]) and in the data set on Saccharomyces cerevisiae [3] (genetic background: wild type) were 0.6955 ± 0.0022 and 0.685 ± 0.037, respectively.

As to YQGVIYGIDGDQ [POP2 C-terminal 12 aa], the values for the protein stability index with Saccharomyces cerevisiae [3] (setting [4]) and in the data set on Saccharomyces cerevisiae [3] (genetic background: wild type) were 0.699 ± 0.012 and 0.689 ± 0.041, respectively.

With “YSISISLHTPCV [YHR049C-A C-terminal 12 aa]”, the protein stability index in the data set on Saccharomyces cerevisiae [3] (setting [4]) worked out at 0.66 ± 0.013; in the data set with Saccharomyces cerevisiae [3] (genetic background: wild type), 0.632 ± 0.02.

Regarding YTDLASIASGRD [SHS1 C-terminal 12 aa], the protein stability index with Saccharomyces cerevisiae [3] (setting [4]) was 0.691 ± 0.016; in the data set on Saccharomyces cerevisiae [3] (genetic background: wild type), 0.714 ± 0.092.

On to YTVLEDDANDEK [HAP1 C-terminal 12 aa], for which the protein stability index amounted to 0.673 ± 0.017 in the data set on Saccharomyces cerevisiae [3] (setting [4]) and 0.7 ± 0.027 with Saccharomyces cerevisiae [3] (genetic background: wild type).

Regarding YVFVFIIDFIIR [FUN26 C-terminal 12 aa], the values for the protein stability index in the data set with Saccharomyces cerevisiae [3] (setting [4]) and in the data set with Saccharomyces cerevisiae [3] (genetic background: wild type) were 0.213 ± 0.006 and 0.245 ± 0.0059, respectively.

For the origin of these results see the supplement of paper PMC10724198.
